Laboratory results taken from patent US20230357411A1 (published 2023).
Where a chain is given by its changes, count along the chain named.

B1: humanized anti-TrkA monoclonal antibody H3L1-IgG4 (antibody, V domains shown)
VH: EVQLLESGGGLVQPGGSLKLSCKASGYAFTNYWLGWMKQRPGHGLEWIGDFYPRTGNTFYNENFKGQVTMSVDKSITTAYLQWNSLKASDTAMYYCARAGTGFDYWGQGTTLTVSS
VL: EIVMTQSPATLSLSVGERVTLSCKASENVGGYVSWYQQKPDQSPKLLIYGASSRHTGVPDRFTGSGSETDFTLTISSVQAEDLAAYHCGQNYIYPFTFGGGTKLEIKR
B2: humanized anti-TrkA monoclonal antibody H3L2-IgG4 (antibody, V domains shown)
VH: B1 VH
VL: B1 VL with H55A
B3: humanized anti-TrkA monoclonal antibody H1L1-IgG1 (antibody)
VH: EVQLLESGGGLVQPGGSLKLSCKASGYAFTNYWLGWMKQRPGHGLEWIGDFYPRTGNTFYNENFKGKVTLTADKSSNTAYMQLSSLTSEDSAVYLCARAGTGFDYWGQGTTLTVSS
light: EIVMTQSPATLSLSVGERVTLSCKASENVGGYVSWYQQKPDQSPKLLIYGASSRHTGVPDRFTGSGSETDFTLTISSVQAEDLAAYHCGQNYIYPFTFGGGTKLEIKRTVAAPSVFIFPPSDEQLKSGTASVVCLLNNFYPREAKVQWKVDNALQSGNSQESVTEQDSKDSTYSLSSTLTLSKADYEKHKVYACEVTHQGLSSPVTKSFNRGEC
B4: human-mouse chimeric anti-TrkA monoclonal antibody 23E12 (H0L0-IgG4) (antibody)
heavy: QVQLQQSGAELVRPGTSVKISCKASGYAFTNYWLGWMKQRPGHGLEWIGDFYPRTGNTFYNENFKGKVTLTADKSSNTAYMQLSSLTSEDSAVYLCARAGTGFDYWGQGTTLTVSSASTKGPSVFPLAPCSRSTSESTAALGCLVKDYFPEPVTVSWNSGALTSGVHTFPAVLQSSGLYSLSSVVTVPSSSLGTKTYTCNVDHKPSNTKVDKRVESKYGPPCPPCPAPEAAGGPSVFLFPPKPKDTLMISRTPEVTCVVVDVSQEDPEVQFNWYVDGVEVHNAKTKPREEQFNSTYRVVSVLTVLHQDWLNGKEYKCKVSNKGLPSSIEKTISKAKGQPREPQVYTLPPSQEEMTKNQVSLTCLVKGFYPSDIAVEWESNGQPENNYKTTPPVLDSDGSFFLYSKLTVDKSRWQEGNVFSCSVMHEALHNHYTQKSLSLSLG
light: B3 light with E1S, A9K, T10S, L11M, L13M
notes: Printed mostly as 'HOLO-IgG4' (letter O for zero); also called HOLO-IgG4; chimeric antibody
B5: humanized anti-TrkA monoclonal antibody H1L1-IgG4 (antibody)
heavy: B4 heavy with Q1E, Q5L, Q6E, A9G, E10G, R13Q, T16G, V18L, I20L
light: B3 light
notes: H1 + L1, IGHG4 heavy chain isotype (mutated Fc), kappa light chain

Assays:
[1] = target: T1, Human-TrKA receptor on the surface of HEK293T-HumanTrKA cells (human, UniProt P04629 33-796); assay: flow cytometry on HEK293T-HumanTrkA cells
T1 construct: whole, on cells
Procedure: (§1) Lentiviral technology was used to construct HEK293T-HumanTrkA cell model. […] Flow cytometry was used to detect the binding of each concentration gradient humanized antibody to the Human-TrKA receptor on the surface of HEK293T-HumanTrKA cells, and the binding ability of each humanized antibody to Human-TrKA was evaluated at the cellular level. In the FIG. 2, the EC50 (half binding concentration) value reflected the binding ability of the antibody to Human-TrKA; the smaller the EC50 value, the stronger the binding ability of the antibody to Human-TrKA, and the higher the affinity of the antibody. It was generally believed that the EC50 value of high-affinity antibodies was lower than 1.5 μg/mL.

[2] = target: T1, Human-TrKA receptor on the surface of …; assay: flow cytometry competition: inhibition of biotinylated Human-NGF binding to HEK293T-HumanTrkA cells
From the text: (§2) Human-NGF was biotinylated, and Human-NGF could bind to the extracellular region of Human-TrkA protein on HEK293T-HumanTrkA cells, and anti-TrkA monoclonal antibodies could also bind to the extracellular region of Human-TrkA protein on HEK293T-HumanTrkA cells. […] In the FIG. 4, the parent% value reflected the Human-NGF signal that bound to the extracellular region of the Human-TrKA protein on HEK293T-HumanTrkA cells.

[3] = target: T2, Mouse-TrKA on the surface of HEK293T-MouseTrKA cells (mouse, UniProt Q3UFB7 34-799); assay: flow cytometry competition: inhibition of biotinylated Mouse-NGF binding to HEK293T-MouseTrkA cells
T2 construct: whole, on cells
From the text: as §2, with “Mouse-NGF” for “Human-NGF”, “Mouse-TrkA” for “Human-TrkA”, “HEK293T-MouseTrkA” for “HEK293T-HumanTrkA”, “5,” for “4,”, “Mouse-TrKA” for “Human-TrKA”

[4] = target: T2, Mouse-TrKA on the surface of …; assay: flow cytometry on HEK293T-MouseTrkA cells
Procedure: as §1, with “construct HEK293T-MouseTrkA” for “construct HEK293T-HumanTrkA”, “of HEK293T-MouseTrKA” for “of HEK293T-HumanTrKA”, “to Mouse-TrKA” for “to Human-TrKA”, “FIG. 3,” for “FIG. 2,”, “to Mouse-TrKA;” for “to Human-TrKA;”, “to Mouse-TrKA,” for “to Human-TrKA,”

[5] = target: CD16 receptor (Fc gamma RIIIA) on Jurkat-NFAT-Luc-CD16 cells (UniProt P08637 17-254, limits assumed); assay: cell-based or functional assay
[6] = target: TrkA protein on the surface of NIH-3T3-TrkA cells; assay: cell-based or functional assay

| Binder | EC50 [1] [mg/L] | IC50 [2] [mg/L] | IC50 [3] [mg/L] | EC50 [4] [mg/L] | ADCC activity, luciferase reporter (Mean Value), half of the peak concentration EC50 [5] [mg/L] | CDC activity, killing of NIH-3T3-TrKA cells (CCK8 cell viability), half-peak concentration IC50 [6] [mg/L] | down-regulation of the level of TrkA protein tyrosine phosphorylation under NGF stimulation (AlphaLISA, p-TrkA), IC50 [6] [mg/L] |
| --- | --- | --- | --- | --- | --- | --- | --- |
| B1 | 0.127 | 0.741 | 0.283 | 0.111 |  |  |  |
| B2 | 0.168 | 0.665 | 0.252 | 0.125 |  |  |  |
| B3 |  |  |  |  | 0.0228 | 0.222 |  |
| B4 | 0.0867 | 0.881 | 0.396 | 0.105 |  |  |  |
| B5 |  |  | 0.385 | 0.134 |  |  | 0.0207 |
